Drawing on article PMC5241339 (2016), this text covers koff for three molecules.

The koff is a measure of how fast the partners let go of each other.

For experiment [1], the target named is T1, CD36 (His-tagged recombinant human protein, Sino Biological, Life technologies, 70-80 kDa) (human, UniProt P16671 30-439). The experiment is described as follows: SPR; native 2; kd1 of two-state fit. (Surface plasmon resonance follows binding to a sensor surface in real time, without labels.)
Experiment [2] addresses T1, CD36 (His-tagged recombinant human …). The experiment is described as follows: SPR; native 1; kd1 of two-state fit.
Experiment [3] has the same target. The experiment can be described thus: SPR; native 2; kd2 of two-state fit.
For experiment [4] the target is unchanged. The experiment is described as follows: SPR; native 1; kd2 of two-state fit.
For experiment [5] the target is unchanged. The experiment can be described thus: SPR; recombinant 1; kd1 of two-state fit.
Experiment [6] has the same target. The experiment can be described thus: SPR; recombinant 2; kd2 of two-state fit.
The target is the same in experiment [7]. The experiment is described as follows: SPR; recombinant 2; kd1 of two-state fit.
Experiment [8] shares this target. The experiment can be described thus: SPR; recombinant 1; kd2 of two-state fit.
The target is the same in experiment [9]. The experiment can be described thus: SPR; kd1 of two-state fit.
For experiment [10] the target is unchanged. The experiment is described as follows: SPR; kd2 of two-state fit.

T1 sequence (P16671 30-439): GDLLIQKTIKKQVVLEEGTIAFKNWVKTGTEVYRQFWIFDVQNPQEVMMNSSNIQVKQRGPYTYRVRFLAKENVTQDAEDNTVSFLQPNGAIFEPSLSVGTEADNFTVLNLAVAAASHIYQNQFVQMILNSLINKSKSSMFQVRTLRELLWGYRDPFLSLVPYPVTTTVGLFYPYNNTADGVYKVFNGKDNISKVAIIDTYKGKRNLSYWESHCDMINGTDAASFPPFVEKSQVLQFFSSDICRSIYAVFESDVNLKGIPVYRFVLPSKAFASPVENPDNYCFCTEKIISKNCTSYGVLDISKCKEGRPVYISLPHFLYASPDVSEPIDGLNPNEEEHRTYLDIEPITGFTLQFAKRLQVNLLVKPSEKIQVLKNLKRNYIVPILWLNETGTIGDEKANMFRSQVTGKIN

B1: commercially available native human S100A12 protein (nS100A12) (natural protein)
chain: MTKLEEHLEGIVNIFHQYSVRKGHFDTLSKGELKQLLTKELANTIKNIKDKAVIDEIFQGLDANQDEQVDFQEFISLVAIALKAAHYHTHKE
B1: the koff in [1] was 0.0092 s⁻¹; in experiment [2], 0.0083 s⁻¹; in experiment [3], 0.00056 s⁻¹; in experiment [4], 0.00051 s⁻¹.

B2: recombinant S100A12 (rS100A12) (natural protein)
chain: GPLGSMTKLEEHLEGIVNIFHQYSVRKGHFDTLSKGELKQLLTKELANTIKNIKDKAVIDEIFQGLDANQDEQVDFQEFISLVAIALKAAHYHTHKE
B2: the koff in experiment [5] worked out at 0.0066 s⁻¹; in [6], 0.00068 s⁻¹; in [7], 0.019 s⁻¹; in experiment [8], 0.00037 s⁻¹.

B3: fluorescein-labeled rS100A12 (natural protein)
chain: GPLGSMTKLEEHLEGIVNIFHQYSVRKGHFDTLSKGELKQLLTKELANTIKNIKDKAVIDEIFQGLDANQDEQVDFQEFISLVAIALKAAHYHTHKE
modifications: fluorescein (NHS-fluorescein, 15 times molar excess; labeled residues not stated)
B3: the koff in experiment [9] amounted to 0.014 s⁻¹; in [10], 0.001 s⁻¹.
